In assay [1] the target is BKV serotype II chimeric infectious virus (VP1 of isolate SB) (BK virus serotype II).
In assay [2] the target is BKV serotype IV chimeric infectious virus (VP1 of strain ITA-4) (BK virus serotype IV).
In assay [3] the target is BKV serotype I infectious virus (VP1) (BK virus serotype I) (UniProt P03088).
Assay [4] concerns the target BKV serotype III chimeric infectious virus (VP1 of isolate AS) (BK virus serotype III).

BKV serotype I infectious virus (VP1) (BK virus serotype I), sequence (P03088 whole entry): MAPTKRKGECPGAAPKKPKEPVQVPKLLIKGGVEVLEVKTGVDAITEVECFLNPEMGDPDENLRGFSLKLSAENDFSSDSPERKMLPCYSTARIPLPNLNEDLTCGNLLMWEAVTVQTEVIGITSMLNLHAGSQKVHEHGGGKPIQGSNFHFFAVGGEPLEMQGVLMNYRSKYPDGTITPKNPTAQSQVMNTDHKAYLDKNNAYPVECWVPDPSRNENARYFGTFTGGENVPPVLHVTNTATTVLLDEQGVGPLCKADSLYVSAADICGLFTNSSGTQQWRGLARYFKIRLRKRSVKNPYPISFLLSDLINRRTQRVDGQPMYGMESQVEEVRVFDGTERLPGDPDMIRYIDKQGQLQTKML

B1: P46F4 (antibody, V domains shown)
VH: QVQLQESGPGLVKPSQTLSLTCTVSGGSISNGGYYWSWIRLHPGKGLEWIGCIHYSGGTYYNPSLKSRVTVSLDTSKNQFSLNLISVTAADTAIYFCARALIAAPGISDWFDPWGQGTLVTVSS
VL: QSVLTQPPSVSAAPGQKVTISCSGSNSNVGHNYVSWYQQLPGTAPKLLIYDNNKRPSGIPDRFSGSKSGTSATLGITGLQTGDEADYYCGTWDSSLSAGVFGGGTKVTVLG
Consider B1, for which the neutralization EC50 in assay [1] is greater than 100 µg/mL; in assay [2], greater than 100 µg/mL; in assay [3] it was 0.004 µg/mL; in assay [4], greater than 100 µg/mL. In addition, the neutralization EC90 in assay [1] is greater than 100 µg/mL; in assay [2], greater than 100 µg/mL; in assay [3] it was 0.29 µg/mL; in assay [4], greater than 100 µg/mL.

(Values after patent US20170088605A1.)
